From publication PMC3372767 (Biochimica et Biophysica Acta, 2012)

Legend:
[1] = biological target: N-terminal three Ig-like domains of human CSF-1R (hCSF-1R D1-D3) (human, UniProt P07333 20-298); test: ITC
[2] = biological target: full-length ectodomain of human CSF-1R (hCSF-1R D1-D5) (human, UniProt P07333 20-517); test: ITC
Sequence of full-length ectodomain of human CSF-1R (hCSF-1R D1-D5) (P07333 20-517): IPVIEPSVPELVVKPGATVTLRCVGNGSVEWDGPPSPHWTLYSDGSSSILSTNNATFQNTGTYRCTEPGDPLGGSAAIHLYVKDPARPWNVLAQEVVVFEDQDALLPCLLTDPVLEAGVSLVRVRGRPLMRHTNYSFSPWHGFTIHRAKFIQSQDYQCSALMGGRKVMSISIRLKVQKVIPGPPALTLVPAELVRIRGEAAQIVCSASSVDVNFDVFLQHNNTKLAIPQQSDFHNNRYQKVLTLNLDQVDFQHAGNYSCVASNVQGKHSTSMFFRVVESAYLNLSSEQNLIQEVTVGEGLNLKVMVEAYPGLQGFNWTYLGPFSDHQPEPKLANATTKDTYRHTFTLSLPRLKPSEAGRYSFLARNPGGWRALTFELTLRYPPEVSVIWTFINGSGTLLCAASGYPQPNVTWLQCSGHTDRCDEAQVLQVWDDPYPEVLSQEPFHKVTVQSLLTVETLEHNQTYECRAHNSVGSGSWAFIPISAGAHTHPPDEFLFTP

Sequence of N-terminal three Ig-like domains of human CSF-1R (hCSF-1R D1-D3) (P07333 20-298): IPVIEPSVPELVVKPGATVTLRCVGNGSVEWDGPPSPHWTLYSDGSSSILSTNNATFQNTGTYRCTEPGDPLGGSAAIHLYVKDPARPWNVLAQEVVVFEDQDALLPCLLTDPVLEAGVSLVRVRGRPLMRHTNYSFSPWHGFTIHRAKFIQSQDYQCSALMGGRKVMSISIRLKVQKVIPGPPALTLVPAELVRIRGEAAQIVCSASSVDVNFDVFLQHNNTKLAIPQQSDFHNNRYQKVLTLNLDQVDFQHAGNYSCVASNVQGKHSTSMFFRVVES

stoichiometry N [1]: 1
fold higher affinity than to CSF-1R D1-D3 [2]: ~400 fold
stoichiometry N [2]: 1
B1: human IL-34 (ligand, UniProt Q6ZMJ4 21-242, looked up)
chain: NEPLEMWPLTQNEECTVTGFLRDKLQYRSRLQYMKHYFPINYKISVPYEGVFRIANVTRLQRAQVSERELRYLWVLVSLSATESVQDVLLEGHPSWKYLQEVETLLLNVQQGLTDVEVSPKVESVLSLLNAPGPNLKLVRPKALLDNCFRVMELLYCSCCKQSSVLNWQDCEVPSPQSCSPEPSLQYAATQLYPPPPWSPSSPPHSTGSVRPVRAQGEGLLP
